Results on two molecules are retold here after patent publication US20110206702A1 (Genentech, published 2011).

This assay has as its target T1, TAT419 polypeptide (human, UniProt P24530 27-442).
T1 construct: Full-length TAT419 on transfected cells (e.g. 293 cells) or on TAT419-expressing human melanoma cell lines; also called full-length TAT419 polypeptide; cell surface expressed TAT419 polypeptide
T1 sequence: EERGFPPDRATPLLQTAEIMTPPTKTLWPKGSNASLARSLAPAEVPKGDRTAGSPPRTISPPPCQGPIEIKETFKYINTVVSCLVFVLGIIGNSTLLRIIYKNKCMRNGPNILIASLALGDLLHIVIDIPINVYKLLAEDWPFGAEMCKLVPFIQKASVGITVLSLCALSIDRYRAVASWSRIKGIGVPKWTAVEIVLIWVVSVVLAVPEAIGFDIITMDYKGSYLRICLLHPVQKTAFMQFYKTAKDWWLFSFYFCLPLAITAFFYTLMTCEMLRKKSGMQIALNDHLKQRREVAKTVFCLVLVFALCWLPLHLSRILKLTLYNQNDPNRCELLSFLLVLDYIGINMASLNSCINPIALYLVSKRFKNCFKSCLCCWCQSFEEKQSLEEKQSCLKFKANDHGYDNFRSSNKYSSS
In words: Western blots, TAT419-derived peptide variants expressed in 293 cells. How it is done:
Binding analysis was also conducted to identify the approximate location of the epitopes. Several TAT419-derived peptide variants were expressed in 293 cells. Western blots were carried out using various of the murine anti-TAT419 monoclonal antibodies described herein.

B1: murine anti-TAT419 monoclonal antibody 5E9 (antibody, mouse IgG2a, kappa, V domains shown)
VH: QVQLLQSGAELARPGASVKLSCKASGYTFTSYWMQWVKQRPGQGLEWIGTIYPGDGDTSYAQKFKGKATLTTDKYSSTAYMQLSSLASEDSAVYYCARWGYAYDIDNWGQGTTVTVSS
VL: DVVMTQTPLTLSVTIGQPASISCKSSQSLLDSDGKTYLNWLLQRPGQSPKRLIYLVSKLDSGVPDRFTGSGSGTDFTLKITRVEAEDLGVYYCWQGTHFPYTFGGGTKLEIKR
notes: also called murine 5E9
Turning to B1, the binding result was “binds”.

B2: humanized anti-TAT419 antibody hu5E9.v1 (antibody, human IgG1, kappa, V domains shown)
VH: EVQLVESGGGLVQPGGSLRLSCAASGYTFTSYWMQWVRQAPGKGLEWIGTIYPGDGDTSYAQKFKGRATLSTDKSKNTAYLQMNSLRAEDTAVYYCARWGYAYDIDNWGQGTLVTVSS
VL: DIQMTQSPSSLSASVGDRVTITCKSSQSLLDSDGKTYLNWLQQKPGKAPKRLIYLVSKLDSGVPSRFSGSGSGTDFTLTISSLQPEDFATYYCWQGTHFPYTFGQGTKVEIKR
Regarding B2, the binding result is given as “binds”.
